Assay results reported in the Human Domainome abundance scans (Beltran et al. 2025).
± gives the uncertainty stated by the source.

B1: Zinc finger homeobox protein 3, residues 2643 to 2698; numbered along this chain, Q15911 (parent)
chain: RLRTTITPEQLEILYQKYLLDSNPTRKMLDHIAHEVGLKKRVVQVWFQNTRARERK

Variants of: B1
Experiment: abundance fitness (aPCA) (normalised: wild type 0, dead -1); higher = more abundant; growth selection in yeast, the domain comes from the species named
Settings: Homo sapiens

Row | Variant | abundance fitness
1 | RLRTTITPEQLEILYQKYLLDSNPTRKMLDHIAHEVGLKKRVVQVWFQNSRARERK | -0.202 ± 0.094
2 | RLRTTITPEQLEILYQKYLLDSNPTRKMLDHIAHEVGLKKRVSQVWFQNTRARERK | -0.821 ± 0.11
3 | RLRTTITPEQLEILYQKYLLDSNPTRKMLDHIAHMVGLKKRVVQVWFQNTRARERK | -0.417 ± 0.11
4 | RLRTTITPEQLEILYQKYLLDSNPTRKMLDHIAHWVGLKKRVVQVWFQNTRARERK | -0.509 ± 0.11
5 | RLRTTITPEQLEILYQKYLLDSNPTRKMLDHIAHKVGLKKRVVQVWFQNTRARERK | -0.356 ± 0.15
6 | RLRTTITPETLEILYQKYLLDSNPTRKMLDHIAHEVGLKKRVVQVWFQNTRARERK | -0.296 ± 0.076
7 | RLRTTITPEDLEILYQKYLLDSNPTRKMLDHIAHEVGLKKRVVQVWFQNTRARERK | 0.224 ± 0.086
8 | RLRTTITPEQLEILYQKYLLDSNPTRKMLDHIAHEVGLKKRVVQVWFQNTRMRERK | -0.138 ± 0.11
9 | RLRTTITPEQLEILYQKYLLDSNPTRKMLDHIAHEVGLKKRVVQVWFQNTRLRERK | -0.317 ± 0.086
10 | RLRTTITPEQLEILYQKYLLDSNPTRKMLDHIAHEVGLKKRVVQVWFQNTRAVERK | 0.013 ± 0.076
11 | RLRTTITPEQLEILYQKYLLDSNPTPKMLDHIAHEVGLKKRVVQVWFQNTRARERK | 0.35 ± 0.089
12 | RLRTTITPEQLEILYQKYLLDSNPTLKMLDHIAHEVGLKKRVVQVWFQNTRARERK | 0.266 ± 0.081
13 | RLRTTITPEQLEILYQKYLLDSNPTRKILDHIAHEVGLKKRVVQVWFQNTRARERK | -0.557 ± 0.43
14 | RLRTTITPEQLEILYQKYLLDSNPTRKMLDHIAHEVGLKKRVVQVWFQTTRARERK | 0.04 ± 0.12
15 | RLRTTITPEQLEILYQKYLLDSNPTRKMLDHIAHEVGLKKRVVQVWFQITRARERK | -0.267 ± 0.17
16 | RLRTTITPEQLEILYQKYLLDSNPTRKMLDHIAHEVGCKKRVVQVWFQNTRARERK | -0.329 ± 0.14
17 | RLRTTITPEQLEILYQKYLLDWNPTRKMLDHIAHEVGLKKRVVQVWFQNTRARERK | -0.491 ± 0.11
18 | RLRTTITPEQLEILYQKYLLDPNPTRKMLDHIAHEVGLKKRVVQVWFQNTRARERK | 0.099 ± 0.13
19 | RLRTTITPEQLEILYQKYLLDTNPTRKMLDHIAHEVGLKKRVVQVWFQNTRARERK | -0.315 ± 0.13
20 | RLRTTITPEQLEILYQKYLLDNNPTRKMLDHIAHEVGLKKRVVQVWFQNTRARERK | -0.273 ± 0.12
21 | RLRTTITPEQLEILYQKYLLDSNPTRKMLDHIAHEVQLKKRVVQVWFQNTRARERK | -0.147 ± 0.1
22 | RLRTTITPEQLEILYQKYLLDSNPTRKMLDHIAHEVILKKRVVQVWFQNTRARERK | -0.891 ± 0.17
23 | RLRTTITPEQLEILYQKYLLDSNPTRKMLDHIAHEVHLKKRVVQVWFQNTRARERK | -0.404 ± 0.16
24 | RLRTTITPEQLEILYQKYLLDSNPTRKMLDHIAHEVGLKPRVVQVWFQNTRARERK | 0.258 ± 0.1

Row | Variant | abundance fitness
25 | RLRTTITPEQLEILYQKYLLDSNPTRKMLDHIAHEVGLKNRVVQVWFQNTRARERK | 0.238 ± 0.17
26 | RLRTTITPEQLEILYQKYLLDSNPTRKMLDHIAHEVGLKYRVVQVWFQNTRARERK | 0.16 ± 0.18
27 | YLRTTITPEQLEILYQKYLLDSNPTRKMLDHIAHEVGLKKRVVQVWFQNTRARERK | 0.054 ± 0.32
28 | RLRTTIEPEQLEILYQKYLLDSNPTRKMLDHIAHEVGLKKRVVQVWFQNTRARERK | 0.087 ± 0.096
29 | RLRTTIYPEQLEILYQKYLLDSNPTRKMLDHIAHEVGLKKRVVQVWFQNTRARERK | -0.487 ± 0.26
30 | RLRTTITPEQLEILYQKYLLDSNPTRKMLDHPAHEVGLKKRVVQVWFQNTRARERK | -0.915 ± 0.13
31 | RLRTTITPEQLEILYQKYLLDSNPTRKMLDHGAHEVGLKKRVVQVWFQNTRARERK | -0.77 ± 0.094
32 | RLRTTITPEQLEILYQKYLLDSNPTRKMLDHTAHEVGLKKRVVQVWFQNTRARERK | -0.274 ± 0.1
33 | RLRTTITPEQLEILYQKYLLDSNPTRKMLDHIAHEVGLKKRLVQVWFQNTRARERK | -0.03 ± 0.087
34 | RLRTTITPEQLEILYQKYLLDSNPTRKMLDHIAHEVGLKKRKVQVWFQNTRARERK | 0.16 ± 0.15
35 | RLRTTHTPEQLEILYQKYLLDSNPTRKMLDHIAHEVGLKKRVVQVWFQNTRARERK | -0.332 ± 0.09
36 | RLRTTMTPEQLEILYQKYLLDSNPTRKMLDHIAHEVGLKKRVVQVWFQNTRARERK | 0.068 ± 0.094
37 | RLRTTKTPEQLEILYQKYLLDSNPTRKMLDHIAHEVGLKKRVVQVWFQNTRARERK | -0.392 ± 0.1
38 | RLRTTRTPEQLEILYQKYLLDSNPTRKMLDHIAHEVGLKKRVVQVWFQNTRARERK | -0.868 ± 0.1
39 | RLRTTITPEQLEILYQKYLLDSNPTRKMLDHIAHEVGLKKRVVQWWFQNTRARERK | -0.317 ± 0.11
40 | RLRTTITPEQLEILYQKYLLDSNPTRKMLDHILHEVGLKKRVVQVWFQNTRARERK | -0.872 ± 0.089
41 | RLRTTITPEQLEILYQKYLLDSNPTRKMLDHIWHEVGLKKRVVQVWFQNTRARERK | -0.728 ± 0.18
42 | RLRTTITPEQLEILYQKYLLDSNPTRKMLDYIAHEVGLKKRVVQVWFQNTRARERK | -0.014 ± 0.19
43 | RLRTTITPEQLEILYQKYLLDSNPTRKMLDAIAHEVGLKKRVVQVWFQNTRARERK | 0.109 ± 0.083
44 | RLRTTITPEQLEILYQKYLLDSNPTRKMLDRIAHEVGLKKRVVQVWFQNTRARERK | -0.237 ± 0.088
45 | RLRTTITPEQLEILYQKYLLDSNPTRKMLDGIAHEVGLKKRVVQVWFQNTRARERK | 0.198 ± 0.075
46 | RLRTTITPEQLEILYQKYLLDSNPTRKMLDHIAHEVGLKKRVVQVLFQNTRARERK | -0.758 ± 0.12
47 | RLRTTITPEQLEILYQKYLLDSNPTRKMLDHIAHEVGLKKRVVQVPFQNTRARERK | -0.891 ± 0.17
